We go through ten molecules from US20210196796A1 (SYNTHEKINE, published 2021).

For experiment [1], the target named is T1, orthogonal hCD122 receptor (hoRb), hCD122 with H133D and Y134F (human, UniProt P14784 27-550).
T1 sequence: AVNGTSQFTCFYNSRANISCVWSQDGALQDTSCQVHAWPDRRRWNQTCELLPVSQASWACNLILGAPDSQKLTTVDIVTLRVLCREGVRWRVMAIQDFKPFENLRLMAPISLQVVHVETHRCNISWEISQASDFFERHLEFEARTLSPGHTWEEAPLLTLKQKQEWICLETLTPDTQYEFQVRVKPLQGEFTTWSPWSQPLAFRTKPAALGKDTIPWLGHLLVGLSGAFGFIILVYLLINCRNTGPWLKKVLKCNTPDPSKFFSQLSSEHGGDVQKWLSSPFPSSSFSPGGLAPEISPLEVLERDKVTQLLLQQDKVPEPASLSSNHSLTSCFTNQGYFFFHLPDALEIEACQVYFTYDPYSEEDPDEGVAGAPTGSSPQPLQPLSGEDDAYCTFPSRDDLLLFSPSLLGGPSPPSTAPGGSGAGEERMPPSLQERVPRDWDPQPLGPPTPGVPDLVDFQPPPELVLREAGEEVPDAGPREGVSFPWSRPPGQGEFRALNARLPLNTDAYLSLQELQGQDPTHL
Put plainly: cell-based or functional assay.

In experiment [2] the target is T1, orthogonal hCD122 receptor (hoRb), …. As to the kind of experiment: cell-based or functional assay. The source holds these as a separate data set.
Wherever Relative Proliferation Fold Change 3F8 1:10 is given: reference of the scale not given here.
Wherever Relative Proliferation Fold Change 3F8 1:2 is given: reference of the scale not given here.
Wherever Relative Proliferation Fold Change 3F8 1:50 is given: reference of the scale not given here.
Wherever Relative Proliferation Fold Change NKL 1:10 is given: reference of the scale not given here.
Wherever Relative Proliferation Fold Change NKL 1:2 is given: reference of the scale not given here.
Wherever Relative Proliferation Fold Change NKL 1:50 is given: reference of the scale not given here.

B1: L18W, SQVLKA (ligand)
chain: APTSSSTKKTQLQLSQLWVLLKAILNGINNYKNPKLTRMLTFKFYMPKKATELKHLQCLEEELKPLEEVLNLAQSKNFHLRPRDLISNINVIVLELKGSETTFMCEYADETATIVEFLNRWITFCQSIISTLT
Consider B1, for which, in experiment [1], the “NKL Ortho Proliferation Signal 1:2” value came to 18700, the “NKL Ortho Proliferation Signal 1:10” value stood at 17000, the “NKL Ortho Proliferation Signal 1:50” value was found to be 10700 and the “Relative Proliferation Fold Change NKL 1:2” value was found to be 1.56 fold. Also, in experiment [1], the “Relative Proliferation Fold Change NKL 1:10” value came out at 1.1 fold and the “Relative Proliferation Fold Change NKL 1:50” value was 0.71 fold. Further, in experiment [2], the “3F8 Ortho Proliferation Signal 1:2” value is 36800 cts/min, the “3F8 Ortho Proliferation Signal 1:10” value turned out to be 32800 cts/min, the “3F8 Ortho Proliferation Signal 1:50” value stood at 9570 cts/min and the “Relative Proliferation Fold Change 3F8 1:2” value was found to be 138 fold. In experiment [2], the “Relative Proliferation Fold Change 3F8 1:10” value worked out at 43.1 fold and the “Relative Proliferation Fold Change 3F8 1:50” value came out at 12.7 fold.

B2: L18Y, SQVLKA (ligand)
chain: APTSSSTKKTQLQLSQLYVLLKAILNGINNYKNPKLTRMLTFKFYMPKKATELKHLQCLEEELKPLEEVLNLAQSKNFHLRPRDLISNINVIVLELKGSETTFMCEYADETATIVEFLNRWITFCQSIISTLT
For the molecule B2, in experiment [1], the “NKL Ortho Proliferation Signal 1:2” value was 37300, the “NKL Ortho Proliferation Signal 1:10” value was found to be 27000, the “NKL Ortho Proliferation Signal 1:50” value came to 14800 and the “Relative Proliferation Fold Change NKL 1:2” value amounted to 3.34 fold. Further, in experiment [1], the “Relative Proliferation Fold Change NKL 1:10” value came to 2.09 fold and the “Relative Proliferation Fold Change NKL 1:50” value was 1.19 fold. In experiment [2], the “3F8 Ortho Proliferation Signal 1:2” value came to 47600 cts/min, the “3F8 Ortho Proliferation Signal 1:10” value worked out at 51400 cts/min, the “3F8 Ortho Proliferation Signal 1:50” value came out at 28200 cts/min and the “Relative Proliferation Fold Change 3F8 1:2” value came to 214 fold. For the same molecule, in experiment [2], the “Relative Proliferation Fold Change 3F8 1:10” value was found to be 101 fold and the “Relative Proliferation Fold Change 3F8 1:50” value was found to be 64 fold.

B3: T3A, SQVLKA (ligand)
chain: APASSSTKKTQLQLSQLLVLLKAILNGINNYKNPKLTRMLTFKFYMPKKATELKHLQCLEEELKPLEEVLNLAQSKNFHLRPRDLISNINVIVLELKGSETTFMCEYADETATIVEFLNRWITFCQSIISTLT
B3: in experiment [1], the “NKL Ortho Proliferation Signal 1:2” value is 69100, the “NKL Ortho Proliferation Signal 1:10” value turned out to be 79500, the “NKL Ortho Proliferation Signal 1:50” value was determined as 47000 and the “Relative Proliferation Fold Change NKL 1:2” value was 3.91 fold. In addition, in experiment [1], the “Relative Proliferation Fold Change NKL 1:10” value came out at 4.22 fold and the “Relative Proliferation Fold Change NKL 1:50” value was 2.67 fold. In experiment [2], the “3F8 Ortho Proliferation Signal 1:2” value was 41400 cts/min, the “3F8 Ortho Proliferation Signal 1:10” value amounted to 39300 cts/min, the “3F8 Ortho Proliferation Signal 1:50” value amounted to 19500 cts/min and the “Relative Proliferation Fold Change 3F8 1:2” value came out at 17.1 fold. In experiment [2], the “Relative Proliferation Fold Change 3F8 1:10” value amounted to 11 fold and the “Relative Proliferation Fold Change 3F8 1:50” value was 8.68 fold.

B4: L18I, SQVLKA (ligand)
chain: APTSSSTKKTQLQLSQLIVLLKAILNGINNYKNPKLTRMLTFKFYMPKKATELKHLQCLEEELKPLEEVLNLAQSKNFHLRPRDLISNINVIVLELKGSETTFMCEYADETATIVEFLNRWITFCQSIISTLT
Regarding B4, in experiment [1], the “NKL Ortho Proliferation Signal 1:2” value came out at 23800, the “NKL Ortho Proliferation Signal 1:10” value stood at 20500, the “NKL Ortho Proliferation Signal 1:50” value was found to be 11000 and the “Relative Proliferation Fold Change NKL 1:2” value turned out to be 2.05 fold. In addition, in experiment [1], the “Relative Proliferation Fold Change NKL 1:10” value came to 1.38 fold and the “Relative Proliferation Fold Change NKL 1:50” value was 0.8 fold. In experiment [2], the “3F8 Ortho Proliferation Signal 1:2” value worked out at 36900 cts/min, the “3F8 Ortho Proliferation Signal 1:10” value came out at 37300 cts/min, the “3F8 Ortho Proliferation Signal 1:50” value amounted to 19400 cts/min and the “Relative Proliferation Fold Change 3F8 1:2” value came out at 81.2 fold. Besides, in experiment [2], the “Relative Proliferation Fold Change 3F8 1:10” value was determined as 29.8 fold and the “Relative Proliferation Fold Change 3F8 1:50” value came to 11 fold.

B5: L18Q, SQVLKA (ligand)
chain: APTSSSTKKTQLQLSQLQVLLKAILNGINNYKNPKLTRMLTFKFYMPKKATELKHLQCLEEELKPLEEVLNLAQSKNFHLRPRDLISNINVIVLELKGSETTFMCEYADETATIVEFLNRWITFCQSIISTLT
Turning to B5, in experiment [1], the “NKL Ortho Proliferation Signal 1:2” value came out at 47500, the “NKL Ortho Proliferation Signal 1:10” value amounted to 41200, the “NKL Ortho Proliferation Signal 1:50” value was found to be 21400 and the “Relative Proliferation Fold Change NKL 1:2” value came to 3.93 fold. Further, in experiment [1], the “Relative Proliferation Fold Change NKL 1:10” value stood at 2.5 fold and the “Relative Proliferation Fold Change NKL 1:50” value was 1.41 fold. Besides, in experiment [2], the “3F8 Ortho Proliferation Signal 1:2” value stood at 40800 cts/min, the “3F8 Ortho Proliferation Signal 1:10” value stood at 57200 cts/min, the “3F8 Ortho Proliferation Signal 1:50” value was determined as 44700 cts/min and the “Relative Proliferation Fold Change 3F8 1:2” value came out at 111 fold. Besides, in experiment [2], the “Relative Proliferation Fold Change 3F8 1:10” value stood at 80.8 fold and the “Relative Proliferation Fold Change 3F8 1:50” value was found to be 47.2 fold.

B6: L18T, SQVLKA (ligand)
chain: APTSSSTKKTQLQLSQLTVLLKAILNGINNYKNPKLTRMLTFKFYMPKKATELKHLQCLEEELKPLEEVLNLAQSKNFHLRPRDLISNINVIVLELKGSETTFMCEYADETATIVEFLNRWITFCQSIISTLT
In the case of B6, in experiment [1], the “NKL Ortho Proliferation Signal 1:2” value turned out to be 25000, the “NKL Ortho Proliferation Signal 1:10” value came out at 20100, the “NKL Ortho Proliferation Signal 1:50” value was 11300 and the “Relative Proliferation Fold Change NKL 1:2” value is 2.37 fold. Moreover, in experiment [1], the “Relative Proliferation Fold Change NKL 1:10” value amounted to 1.49 fold and the “Relative Proliferation Fold Change NKL 1:50” value came to 0.87 fold. Further, in experiment [2], the “3F8 Ortho Proliferation Signal 1:2” value came out at 61100 cts/min, the “3F8 Ortho Proliferation Signal 1:10” value stood at 51800 cts/min, the “3F8 Ortho Proliferation Signal 1:50” value was found to be 25700 cts/min and the “Relative Proliferation Fold Change 3F8 1:2” value turned out to be 2.05 fold. Further, in experiment [2], the “Relative Proliferation Fold Change 3F8 1:10” value was found to be 6.27 fold and the “Relative Proliferation Fold Change 3F8 1:50” value was 13.8 fold.

B7: L18V, SQVLKA (ligand)
chain: APTSSSTKKTQLQLSQLVVLLKAILNGINNYKNPKLTRMLTFKFYMPKKATELKHLQCLEEELKPLEEVLNLAQSKNFHLRPRDLISNINVIVLELKGSETTFMCEYADETATIVEFLNRWITFCQSIISTLT
On to B7, for which, in experiment [1], the “NKL Ortho Proliferation Signal 1:2” value turned out to be 17800, the “NKL Ortho Proliferation Signal 1:10” value came to 14000, the “NKL Ortho Proliferation Signal 1:50” value is 8670 and the “Relative Proliferation Fold Change NKL 1:2” value worked out at 1.36 fold. For the same molecule, in experiment [1], the “Relative Proliferation Fold Change NKL 1:10” value worked out at 0.96 fold and the “Relative Proliferation Fold Change NKL 1:50” value worked out at 0.62 fold. In experiment [2], the “3F8 Ortho Proliferation Signal 1:2” value came out at 36500 cts/min, the “3F8 Ortho Proliferation Signal 1:10” value stood at 29500 cts/min, the “3F8 Ortho Proliferation Signal 1:50” value amounted to 9920 cts/min and the “Relative Proliferation Fold Change 3F8 1:2” value worked out at 139 fold. For the same molecule, in experiment [2], the “Relative Proliferation Fold Change 3F8 1:10” value came out at 19.2 fold and the “Relative Proliferation Fold Change 3F8 1:50” value stood at 12 fold.

B8: L18S, SQVLKA (ligand)
chain: APTSSSTKKTQLQLSQLSVLLKAILNGINNYKNPKLTRMLTFKFYMPKKATELKHLQCLEEELKPLEEVLNLAQSKNFHLRPRDLISNINVIVLELKGSETTFMCEYADETATIVEFLNRWITFCQSIISTLT
With B8, in experiment [1], the “NKL Ortho Proliferation Signal 1:2” value is 27200, the “NKL Ortho Proliferation Signal 1:10” value turned out to be 21500, the “NKL Ortho Proliferation Signal 1:50” value came to 11500 and the “Relative Proliferation Fold Change NKL 1:2” value is 2.4 fold. Moreover, in experiment [1], the “Relative Proliferation Fold Change NKL 1:10” value came out at 1.56 fold and the “Relative Proliferation Fold Change NKL 1:50” value was 0.85 fold. Also, in experiment [2], the “3F8 Ortho Proliferation Signal 1:2” value was 43300 cts/min, the “3F8 Ortho Proliferation Signal 1:10” value turned out to be 48600 cts/min, the “3F8 Ortho Proliferation Signal 1:50” value is 23600 cts/min and the “Relative Proliferation Fold Change 3F8 1:2” value was found to be 185 fold. Further, in experiment [2], the “Relative Proliferation Fold Change 3F8 1:10” value was determined as 89 fold and the “Relative Proliferation Fold Change 3F8 1:50” value was 41.9 fold.

B9: L18D, SQVLKA (ligand)
chain: APTSSSTKKTQLQLSQLDVLLKAILNGINNYKNPKLTRMLTFKFYMPKKATELKHLQCLEEELKPLEEVLNLAQSKNFHLRPRDLISNINVIVLELKGSETTFMCEYADETATIVEFLNRWITFCQSIISTLT
As for B9, in experiment [1], the “NKL Ortho Proliferation Signal 1:2” value was 6380, the “NKL Ortho Proliferation Signal 1:10” value was found to be 8160, the “NKL Ortho Proliferation Signal 1:50” value amounted to 7460 and the “Relative Proliferation Fold Change NKL 1:2” value was determined as 0.6 fold. Also, in experiment [1], the “Relative Proliferation Fold Change NKL 1:10” value is 0.59 fold and the “Relative Proliferation Fold Change NKL 1:50” value turned out to be 0.56 fold. Moreover, in experiment [2], the “3F8 Ortho Proliferation Signal 1:2” value was 44000 cts/min, the “3F8 Ortho Proliferation Signal 1:10” value is 49600 cts/min, the “3F8 Ortho Proliferation Signal 1:50” value amounted to 25200 cts/min and the “Relative Proliferation Fold Change 3F8 1:2” value came to 92.5 fold. Further, in experiment [2], the “Relative Proliferation Fold Change 3F8 1:10” value came to 81.3 fold and the “Relative Proliferation Fold Change 3F8 1:50” value was determined as 28.4 fold.

B10: L18K, SQVLKA (ligand)
chain: APTSSSTKKTQLQLSQLKVLLKAILNGINNYKNPKLTRMLTFKFYMPKKATELKHLQCLEEELKPLEEVLNLAQSKNFHLRPRDLISNINVIVLELKGSETTFMCEYADETATIVEFLNRWITFCQSIISTLT
As to B10, in experiment [1], the “NKL Ortho Proliferation Signal 1:2” value was found to be 22200, the “NKL Ortho Proliferation Signal 1:10” value came out at 20200, the “NKL Ortho Proliferation Signal 1:50” value turned out to be 11500 and the “Relative Proliferation Fold Change NKL 1:2” value amounted to 1.56 fold. Further, in experiment [1], the “Relative Proliferation Fold Change NKL 1:10” value was 1.21 fold and the “Relative Proliferation Fold Change NKL 1:50” value is 0.76 fold. Also, in experiment [2], the “3F8 Ortho Proliferation Signal 1:2” value came out at 45400 cts/min, the “3F8 Ortho Proliferation Signal 1:10” value is 42800 cts/min, the “3F8 Ortho Proliferation Signal 1:50” value turned out to be 20400 cts/min and the “Relative Proliferation Fold Change 3F8 1:2” value amounted to 162 fold. Besides, in experiment [2], the “Relative Proliferation Fold Change 3F8 1:10” value worked out at 49.6 fold and the “Relative Proliferation Fold Change 3F8 1:50” value turned out to be 14.6 fold.
